Reference: patent publication US20220177604A1 (ARGENX, published 2022)
Residue numbers refer to the chain shown, from its start.

Columns and labels:
[1] = biological target: T1, human immunoglobulin E (hIgE) (human, UniProt P01854-1 1-428); experiment: SPR competition
T1 construct: also called human IgE; Native IgE (Abcam)
Protocol: (§1) For this purpose, a competition approach was set-up. […] The assay was performed in HBS-EP pH7.4 or HBS-EP pH 5.5. Raw data were analyzed via BIA evaluation software with a blank subtraction (2-1). […] The IC50 values of each compound were calculated with a non-linear regression (log(agonist) vs. response Variable slope (four parameters)).

[2] = biological target: T1, human immunoglobulin E (hIgE); experiment: competition ELISA, biotin-hIgE to coated hFcεRIα, pH 7.4
Protocol: (§2) The IC50 values of each compound were calculated with a non-linear regression (log(agonist) vs. response Variable slope (four parameters)).

[3] = biological target: T1, human immunoglobulin E (hIgE); experiment: competition ELISA
Protocol: as §2

[4] = biological target: T1, human immunoglobulin E (hIgE); experiment: SPR competition, hIgE over hFcεRIα chip, pH 5.5
Protocol: (§3) The assay was performed in HBS-EP pH7.4 or HBS-EP pH 5.5. Raw data were analyzed via BIA evaluation software with a blank subtraction (2-1). […] The IC50 values of each compound were calculated with a non-linear regression (log(agonist) vs. response Variable slope (four parameters)).
(§4) Raw data were analyzed via BIA evaluation software with a blank subtraction (2-1). […] The IC50 values of each compound, calculated with a non-linear regression (log(agonist) vs. response Variable slope (four parameters)).

[5] = biological target: T1, human immunoglobulin E (hIgE); experiment: SPR competition, hIgE + mAb over hFcεRIα chip, pH 7.4
Protocol: as §1

[6] = biological target: T1, human immunoglobulin E (hIgE); experiment: competition ELISA, biotin-hIgE to coated hFcεRIα, pH 6
Protocol: as §2

[7] = biological target: T1, human immunoglobulin E (hIgE); experiment: SPR competition, hIgE over hFcεRIα chip, pH 7.4
Protocol: as §3, §4

[8] = biological target: T1, human immunoglobulin E (hIgE); experiment: SPR competition, hIgE + mAb over hFcεRIα chip, pH 6 (text: pH 5.5)
Protocol: as §1

[9] = biological target: T1, human immunoglobulin E (hIgE); experiment: SPR competition; remark: listed apart in the source
[10] = biological target: T2, recombinant Motavizumab human IgE (rMota-hIgE) (human, UniProt P01854 1-428); experiment: ELISA: rMota-hIgE captured on coated RSV-F, washes at pH 5.5, anti-human Fc-HRP; EC50 unit inferred, x axis in pM; curve reaches only OD450 about 0.85 at about 670 pM
T2 construct: also called Recombinant IgE (argenx)
Protocol: (§5) Briefly a Maxisorp plate was coated with recombinant human respiratory syncytial virus protein F (RSV-F) (0.5 μg/mL), then blocked with PBS with 3% BSA and 0.05% Tween. […] After several washing steps at pH 7.4 or pH 5.5, detection of the bound mAbs was carried out with an anti-human Fc-HRP antibody.

[11] = biological target: T2, recombinant Motavizumab human IgE …; experiment: ELISA: rMota-hIgE captured on coated RSV-F, washes at pH 7.4, anti-human Fc-HRP; EC50 unit inferred, x axis in pM
Protocol: as §5

[12] = biological target: T2, recombinant Motavizumab human IgE …; experiment: ELISA: rMota-hIgE captured on coated RSV-F, washes at pH 5.5, anti-human Fc-HRP; EC50 unit inferred, x axis in pM
Protocol: as §5

[13] = biological target: T2, recombinant Motavizumab human IgE …; experiment: as above; remark: listed apart in the source
Protocol: as §5

[14] = biological target: T2, recombinant Motavizumab human IgE …; experiment: ELISA: rMota-hIgE captured on coated RSV-F, washes at pH 7.4, anti-human Fc-HRP; EC50 unit inferred, x axis in pM; remark: listed apart in the source
Protocol: as §5

[15] = biological target: T2, recombinant Motavizumab human IgE …; experiment: hIgE binding ELISA
Protocol: as §5

[16] = biological target: T2, recombinant Motavizumab human IgE …; experiment: hIgE binding ELISA, pH 5.5
Protocol: as §5

[17] = biological target: T2, recombinant Motavizumab human IgE …; experiment: hIgE binding ELISA, pH 7.4
Protocol: as §5

[18] = biological target: T1, human immunoglobulin E (hIgE); experiment: SPR (Biacore) on hIgE
Protocol: The ratio of KD measured at pH 5.5 versus KD measured at pH 7.4 was calculated for each of the CL-2C antibodies.

[19] = biological target: T2, recombinant Motavizumab human IgE …; experiment: hIgE binding ELISA; remark: listed apart in the source
Protocol: The ratio of OD450 measured at pH 7.4 versus OD450 measured at pH 6 was calculated for each of the CL-2C antibodies.

[20] = biological target: T1, human immunoglobulin E (hIgE); experiment: competition ELISA, hIgE to hFcεRIα

T2 sequence (P01854 other isoform, or with tags, fused parts or gaps limits assumed, form in doubt): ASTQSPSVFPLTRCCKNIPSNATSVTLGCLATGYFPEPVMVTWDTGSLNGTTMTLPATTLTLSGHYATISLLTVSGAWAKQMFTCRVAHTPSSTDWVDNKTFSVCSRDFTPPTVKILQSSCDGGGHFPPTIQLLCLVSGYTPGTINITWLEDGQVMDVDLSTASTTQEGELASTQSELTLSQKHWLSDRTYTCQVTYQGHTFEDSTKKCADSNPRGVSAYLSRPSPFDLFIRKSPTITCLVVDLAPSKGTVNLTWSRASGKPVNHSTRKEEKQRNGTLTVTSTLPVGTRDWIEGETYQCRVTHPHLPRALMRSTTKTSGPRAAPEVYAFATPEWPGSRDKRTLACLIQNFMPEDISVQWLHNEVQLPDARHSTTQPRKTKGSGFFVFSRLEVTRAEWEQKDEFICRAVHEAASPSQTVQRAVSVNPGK
T1 sequence (P01854 whole entry): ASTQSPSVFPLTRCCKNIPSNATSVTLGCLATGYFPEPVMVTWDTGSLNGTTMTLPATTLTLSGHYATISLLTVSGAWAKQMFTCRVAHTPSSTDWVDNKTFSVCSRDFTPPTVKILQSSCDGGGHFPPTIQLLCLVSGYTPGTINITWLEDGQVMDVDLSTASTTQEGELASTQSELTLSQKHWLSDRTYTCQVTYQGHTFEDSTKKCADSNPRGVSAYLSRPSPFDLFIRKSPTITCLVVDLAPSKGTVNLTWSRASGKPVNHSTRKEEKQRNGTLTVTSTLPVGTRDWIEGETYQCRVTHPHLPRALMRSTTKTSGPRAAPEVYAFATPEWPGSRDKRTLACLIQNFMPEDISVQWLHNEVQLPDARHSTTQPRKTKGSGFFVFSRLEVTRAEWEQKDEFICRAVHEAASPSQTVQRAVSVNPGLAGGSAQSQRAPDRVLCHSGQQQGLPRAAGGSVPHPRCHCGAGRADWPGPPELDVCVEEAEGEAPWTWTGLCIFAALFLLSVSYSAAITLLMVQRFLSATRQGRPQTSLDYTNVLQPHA

B1: 3D1 human IgG1 mAb (antibody, V domains shown)
VH: QLQVVESGGGLVQPGGSLRLSCAASGFTFSSYYMSWVRQAPGKGLEWVSSIYSDGRGSKTFYADSVKGRFTISRDNAKNTLYLQMNSLKSEDTAVYFCAKDLLVAARGSMDYWGQGTQVTVSS
VL: NFMLTQPSAVSVSLEQTARITCQGGTLGSYGAHWYQQKPGQAPVLLIYGDNSRPSGIPERFSGTRSGGTATLTISGAQAEDEADYYCQSFDYSGNAVFGGGTHLTVL
notes: human IgG1 and human light chain constant domains; also called clone 3D1; WT 3D1
**Q.** B1 was tested. Which “Ratio pH 6/7.4 (IC50)” value [1] did it give?
**A.** 0.8

**Q.** And the IC50 [2]?
**A.** 90.3 nM

**Q.** And the “Ratio pH 6/7.4 (IC50)” value [3]?
**A.** 1.3

**Q.** What about the IC50 [4] of the same binder?
**A.** 11.7 µg/mL

**Q.** And the IC50 [5]?
**A.** 5.31 nM

**Q.** And the IC50 [6]?
**A.** 118 nM

**Q.** What about the IC50 [7] of the same binder?
**A.** 1.36 µg/mL

**Q.** And the IC50 [8]?
**A.** 4.44 nM

**Q.** What about the “ratio between IC50 at pH5.5 and pH 7.4” value [9] of the same binder?
**A.** 8.6

B2: 18E2His2-hIgG1-WT (antibody, V domains shown)
VH: QLQLVESGGGLVQPGGSLRLSCAASGFTFSSYVMHWVRQAPGKGLEWVSSIYHDGSHTYYADFVKGRFTISRDNAKNTLYLQMNSLKSEDTAVYYCASGTSYSGSYYYTDPFFGSWGQGTQVTVSS
VL: NFMLTQPSALSVTLGQTARITCQGDRLGSRYIHWYQQKPPQAPVLVIHDDDRRPSGIPERFSGSSSGGTATLTISGAQAEDDGDYYCQSADSSGNPVFGGGTHLTVL
**Q.** Which results are given for B2?
**A.** EC50 [10]: ~4210 nM; EC50 [11]: 0.365 nM

B3: 18E2His2-hIgG1-ABDEG (antibody, V domains shown)
VH: B2 VH
VL: B2 VL
notes: human IgG1 heavy chain with ABDEG mutations (pUPEX32a); also called 18E2His2-ABDEG
**Q.** What does the source list for B3?
**A.** EC50 [11]: 0.121 nM; EC50 [12]: 0.616 nM

B4: 13E4-hIgG1-ABDEG (antibody, V domains shown)
VH: B2 VH with Q1E, H35S
VL: HSAVTQPSALSVTLGQTAKITCQGGSLGSNYAYWYQQKPGQAPVLVIYDDDSRPSGIPERFSGSSSGGTATLTISGAQAEDEGDYYCQSADSNGNAVFGGGTHLTVL
notes: human IgG1 heavy chain with ABDEG mutations (pUPEX32a); also called 13E4-ABDEG
**Q.** How did the EC50 [13] turn out when B4 was run?
**A.** 0.122 nM

**Q.** What about the EC50 [14] of the same binder?
**A.** 0.11 nM

B5: CL-2C mAb 37 (antibody, V domains shown)
VH: QVQLVQSGAEVMKPGSSVKVSCKASGYTFSWYHLEWVRQAPGHGLEWMGEIDPGTFTTNYNEKFKARVTFTADTSTSTAYMELSSLRSEDTAVYYCARFSHFSGSNHDYFDYWGQGTLVTVSS
VL: EIVMTQSPATLSVSPGERATLSCRASQSIGTNIHWYQQKPGQAPRLLIYYASESISGIPARFSGSGSGTEFTLTISSLQSEDFAVYYCQQSWSWPTTFGGGTKVEIK
notes: also called VKWT + VH33H100CH
**Q.** What does the source list for B5?
**A.** Ratio EC50 pH 5.5/7.4 [15]: 2.5; Ratio EC50 pH 7.4/5.5 [15]: 0.4; EC50 [16]: 0.0373 µg/mL; EC50 [17]: 0.0149 µg/mL; KD Ratio pH 5.5/pH 7.4 [18]: 11.1; Ratio OD450 pH 7.4/pH 6 [19]: 10.3; IC50 [20]: 0.483 nM
